Data: patent US20190284287A1 (TUSK THERAPEUTICS, published 2019)
Blank lines part the entries; values can stand above or below the binder they belong to.

Key:
[1] = molecular target: T1, recombinant human CD25 extracellular protein sequence (rhCD25) (human, UniProt P01589 22-240); test: method not given; upper end of the stated range
T1 construct: also called human CD25 antigen
T1 sequence: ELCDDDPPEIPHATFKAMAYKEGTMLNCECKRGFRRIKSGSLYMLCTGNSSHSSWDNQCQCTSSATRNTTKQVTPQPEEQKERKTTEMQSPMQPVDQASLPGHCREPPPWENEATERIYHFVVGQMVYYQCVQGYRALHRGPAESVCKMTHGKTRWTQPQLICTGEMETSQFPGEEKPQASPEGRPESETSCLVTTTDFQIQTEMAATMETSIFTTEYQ

[2] = molecular target: T2, recombinant human CD25 his tagged (human, UniProt P01589 22-240); test: SPR, Biacore 2000; antibody captured by anti-human antibody, rhCD25-His as analyte, two state fit
T2 construct: also called rhCD25-his tag; not shown: His tag
T2 sequence: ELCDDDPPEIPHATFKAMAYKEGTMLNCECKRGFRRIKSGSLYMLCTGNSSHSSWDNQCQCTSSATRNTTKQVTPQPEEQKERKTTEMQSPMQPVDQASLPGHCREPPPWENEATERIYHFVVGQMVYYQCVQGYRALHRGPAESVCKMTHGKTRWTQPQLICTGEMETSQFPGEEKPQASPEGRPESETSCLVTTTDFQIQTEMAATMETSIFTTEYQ

[3] = molecular target: T1, recombinant human CD25 extracellular …; test: method not given; lower end of the stated range
[4] = molecular target: T3, human CD25 expressed on cells (human, UniProt P01589 22-272); test: flow cytometry on Karpas 299 cells, Alexa Fluor 647 anti-human IgG Fc secondary [B); D00021 Figure 21 cont. C), D), E]
T3 construct: Endogenous CD25 on human cell lines and primary cells
T3 sequence: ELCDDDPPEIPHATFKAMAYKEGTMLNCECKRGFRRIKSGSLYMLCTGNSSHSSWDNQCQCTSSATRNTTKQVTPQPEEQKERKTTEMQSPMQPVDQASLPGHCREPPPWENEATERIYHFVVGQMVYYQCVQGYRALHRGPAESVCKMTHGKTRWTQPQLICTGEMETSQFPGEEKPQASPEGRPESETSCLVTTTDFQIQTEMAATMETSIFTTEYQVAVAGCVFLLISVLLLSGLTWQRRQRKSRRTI
Protocol: Binding to CD25 expressing Karpas299 cells was examined by staining test articles (anti-CD25 primary antibodies) with 20 μg/ml antibodies followed by semi-log dilution series (7-point) for 30 minutes on ice. […] All samples were stained in duplicates. Live cells were gated using FSC vs SSC parameters by flow cytometry during sample acquisition. Mean fluorescence intensity (MFI) of stained cells were plotted on an XY chart, graphing MFI against the log of the concentration, and the data fit to a non-linear regression curve from which the EC50 is calculated.

[5] = molecular target: T3, human CD25 expressed on cells; test: cell-based or functional assay
[6] = molecular target: T4, human CD25 antigen, R&D Systems cat no. 223-2A/CF (~10% dimer) (human, UniProt P01589 22-240, limits assumed); test: SPR, Biacore T200; antibody captured by anti-human Fab, CD25 as analyte, Two State Reaction fit; column 'Binding strength' (affinity and/or avidity)
T4 construct: also called R&D Systems (~10% dimer); huCD25 (IL2R alpha)
T4 sequence: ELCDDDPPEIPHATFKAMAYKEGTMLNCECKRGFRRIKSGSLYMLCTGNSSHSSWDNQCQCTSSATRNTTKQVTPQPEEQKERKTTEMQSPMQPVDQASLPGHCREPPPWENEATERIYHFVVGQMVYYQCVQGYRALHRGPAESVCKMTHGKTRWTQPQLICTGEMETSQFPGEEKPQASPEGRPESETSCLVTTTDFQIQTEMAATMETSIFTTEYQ
Protocol: (§1) Binding of CD25 antibodies to human CD25 antigen was investigated by surface plasmon resonance using a BIACORE T200 instrument (GE Healthcare).
(§2) The flow cell was set to 25° C. and the sample compartment to 12° C. The CD25 antibody was captured by injecting a 3 μg/ml solution for 60 sec at a flow rate of 10 μl/min. Association of CD25 antigen was measured by injection of human CD25 solutions for 180 sec at a flow rate of 30 μl/min starting with a concentration of 1000 nM down to 1 nM in 1:10 dilution steps. The dissociation phase was triggered by switching from sample solution injection to running buffer and monitored for up to 600 seconds. The surface was regenerated by washing with two consecutive 1-minute injections of 10mM glycine pH 2.1 (provided by the kit) at a flow rate of 10 μl/min. Bulk refractive index differences were corrected by subtracting the response obtained from an anti-human Fab reference surface; blank injections are also subtracted (=double referencing).
(§3) For calculation of KD and kinetic parameters Biacore provided fitting models were used to obtain optimal curve fitting results. The 1:1 Langmuir fit was used for P1AA5872 and the Two State Kinetic fitting for CD25 from Sino Biologicals and R&D Systems.

[7] = molecular target: T5, inhouse produced monomeric human CD25 antigen (P1AA5872) (human, UniProt P01589 22-240, limits assumed); test: SPR, Biacore T200; antibody captured by anti-human Fab, monomeric CD25 as analyte, 1:1 Langmuir fit; column 'Binding strength'
T5 construct: also called Inhouse (0% dimer)
T5 sequence: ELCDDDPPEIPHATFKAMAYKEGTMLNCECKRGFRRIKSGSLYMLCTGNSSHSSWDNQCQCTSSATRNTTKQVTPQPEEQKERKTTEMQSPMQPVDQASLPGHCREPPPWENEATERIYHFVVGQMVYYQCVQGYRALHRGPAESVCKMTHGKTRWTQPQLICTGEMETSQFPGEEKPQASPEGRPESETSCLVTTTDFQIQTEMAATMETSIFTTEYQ
Protocol: as §1, §2, §3

[8] = molecular target: T3, human CD25 expressed on cells; test: flow cytometry on CD3/CD28 bead activated human Pan T cells, gated on CD4+ T cells
Protocol: (§4) Binding to CD25 expressing activated human and Cynomolgus monkey PMBC was examined by staining test articles (anti-CD25 primary antibodies) with 20 μg/ml antibodies followed by semi-log dilution series (7-point) for 30 minutes on ice. This was followed by staining with a secondary antibody (rabbit anti-human Fcg F(ab′)2—(Jackson ImmunoResearch)) concentration of 5 μg/ml for 30 minutes on ice. All samples were stained in triplicates. To minimize cross-linking induced cell death mediated by binding of the secondary antibody, cell lines were examined in staining cohorts of 4 test articles at a time. Live lymphocytes were gated using FSC vs SSC parameters by flow cytometry during sample acquisition. Mean fluorescence intensity (MFI) of gated CD4⁺ and CD8⁺ T cell subsets were plotted on an XY chart, graphing MFI against the log of the concentration, and the data fit to a non-linear regression curve from which the EC50 was calculated.

[9] = molecular target: T2, recombinant human CD25 his tagged; test: BLI, ForteBio Octet Red96; IgG on AHC sensors, rhCD25-His in solution, 1:1 fit
Protocol: Sensors were equilibrated off-line in assay buffer for 10 min and then monitored on-line for 60 seconds for baseline establishment. […] Then, 1:3 serial dilutions (from 1 uM to 4 nM) of recombinant human CD25 HIS tagged was associated to the loaded IgG for 10 min. Afterwards they were transferred to assay buffer for 6.6 min for off-rate measurement. Kinetics data were fit using a global 1:1 binding model in the ForteBio Data Analysis Software 9.0 with reference subtraction.

[10] = molecular target: T3, human CD25 expressed on cells; test: flow cytometry on human in vitro differentiated Treg cells, Alexa Fluor 647 anti-human IgG secondary
Protocol: Binding to CD25 expressing in vitro differentiated Tregs was examined by staining test articles (anti-CD25 primary antibodies) with 30 μg/ml antibodies followed by semi-log dilution series (7-point) for 30 minutes on ice. […] All samples were stained in duplicates. Live cells were gated using FSC vs SSC parameters by flow cytometry during sample acquisition. Mean fluorescence intensity (MFI) of stained cells were plotted on an XY chart, graphing MFI against the log of the concentration, and the data fit to a non-linear regression curve from which the EC50 is calculated.

[11] = molecular target: T3, human CD25 expressed on cells; test: flow cytometry on CD3/CD28 bead activated human Pan T cells, gated on CD8+ T cells
Protocol: as §4

[12] = molecular target: T6, human CD25 antigen, Sino Biologicals cat no. 10165-H08H (~20% dimer) (human, UniProt P01589 22-213); test: SPR, Biacore T200; antibody captured by anti-human Fab, CD25 as analyte, Two State Reaction fit; column 'Binding strength' (affinity and/or avidity); Sino Biological CD25 (~20% dimer), Two State Reaction fit; affinity and/or avidity
T6 construct: Bought antigen; also called Sino biological (~20% dimer)
T6 sequence: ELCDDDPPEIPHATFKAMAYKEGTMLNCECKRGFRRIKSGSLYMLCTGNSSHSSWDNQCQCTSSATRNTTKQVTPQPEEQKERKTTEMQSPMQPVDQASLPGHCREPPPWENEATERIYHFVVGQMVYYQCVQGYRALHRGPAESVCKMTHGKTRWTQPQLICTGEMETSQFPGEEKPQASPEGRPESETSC
Description: as §1, §3

[13] = molecular target: T2, recombinant human CD25 his tagged; test: SPR, Biacore 2000: IgG1 captured on an anti-human antibody CM-5 chip, rhCD25-his tag as analyte
[14] = molecular target: T2, recombinant human CD25 his tagged; test: as above; remark: listed apart in the source
[15] = molecular target: T2, recombinant human CD25 his tagged; test: as above; remark: listed apart in the source
Protocol: (§5) Anti-human antibody was initially immobilised across all flow cells in analysis buffer (pH 7.4, 10 mM HEPES, 150 mM NaCl, 3 mM EDTA, 0.05% Tween 20) to an RU of between 12,000-14,000 over 10 minutes. […] Dissociation was performed in analysis buffer over 10 minutes. Regeneration steps between sample concentrations were performed in 10 mM Glycin pH1.7 for 10 minutes. A flow rate of 25 μl/min was maintained throughout the process. Kinetics data were fit using a global two state reaction conformational change analysis software provided by Biacore with reference subtraction.

[16] = molecular target: T2, recombinant human CD25 his tagged; test: as above; remark: listed apart in the source
Protocol: as §5

[17] = molecular target: T2, recombinant human CD25 his tagged; test: as above; remark: listed apart in the source
Protocol: as §5

ADCC of iTregs by IL-2 activated NK cells: EC50 [5]: 0.01 uG/mL
B2: afucosylated aCD25-a-686 (antibody, human IgG1, V domains shown)
VH: QVQLVQSGAEVKKPGSSVKVSCKASGGTFSSLAISWVRQAPGQGLEWMGGIIPIFGTANYAQKFQGRVTITADESTSTAYMELSSLRSEDTAVYYCARGGSVSGTLVDFDIWGQGTMVTVSS
VL: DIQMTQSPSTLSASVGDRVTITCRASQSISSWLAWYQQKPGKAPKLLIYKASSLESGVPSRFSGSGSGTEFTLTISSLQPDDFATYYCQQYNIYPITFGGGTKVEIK
modifications: Fc glycan afucosylated (>99% of a-fucosylation by LC/MS)

Kd [15]: 0.34 nM
B5: aCD25-a-686-m3 (antibody, IgG1, V domains shown)
VH: QVQLVQSGAEVKKPGSSVKVSCKASGGTFSSLAISWVRQAPGQGLEWMGGIIPIFGDANYAQKLQGRVTMTTDTSTSTAYMELRSLRSDDTAVYYCARGGSVSGTLVDFDIWGQGTMVTVSS
VL: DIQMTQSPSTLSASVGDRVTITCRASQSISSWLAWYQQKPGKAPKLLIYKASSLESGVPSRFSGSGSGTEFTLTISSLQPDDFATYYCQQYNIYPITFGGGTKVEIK

Kd [16]: 0.76 nM
B6: aCD25-a-686-m4 (antibody, IgG1, V domains shown)
VH: QVQLVQSGAEVKKPGSSVKVSCKASGGTFSALAISWVRQAPGQGLEWMGGIIPLFGRANYAQKFQGRVTITADESTSTAYMELSSLRSEDTAVYYCARGGSVSGTLVDFDIWGQGTMVTVSS
VL: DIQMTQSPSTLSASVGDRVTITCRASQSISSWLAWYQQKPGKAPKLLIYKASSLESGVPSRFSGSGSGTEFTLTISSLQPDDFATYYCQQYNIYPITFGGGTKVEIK

Kd [17]: 0.66 nM
B7: aCD25-a-686-m5 (antibody, IgG1, V domains shown)
VH: QVQLVQSGAEVKKPGSSVKVSCKASGGTFSSLAIFWVRQAPGQGLEWMGGIIPVFGQANYAQKFQGRVTITVDESTSTAYMELSSLRSEDTAVYYCARGGSVSGTLVDFDIWGQGTMVTVSS
VL: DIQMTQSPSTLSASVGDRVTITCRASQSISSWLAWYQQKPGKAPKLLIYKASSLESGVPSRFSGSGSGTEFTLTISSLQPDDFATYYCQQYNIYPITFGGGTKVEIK

More lines, now with the values behind:

B1: aCD25-a-686 (antibody, V domains shown)
VH: QVQLVQSGAEVKKPGSSVKVSCKASGGTFSSLAISWVRQAPGQGLEWMGGIIPIFGTANYAQKFQGRVTITADESTSTAYMELSSLRSEDTAVYYCARGGSVSGTLVDFDIWGQGTMVTVSS
VL: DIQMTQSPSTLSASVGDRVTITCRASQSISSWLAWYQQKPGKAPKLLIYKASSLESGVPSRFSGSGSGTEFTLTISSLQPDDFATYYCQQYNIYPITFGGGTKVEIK
notes: not shown: human IgG1 heavy chain constant region (P01857); human kappa light chain constant region (P01834)
Kd [1]: ≤ 10 nM
Kd [2]: 3.2 nM
Kd [3]: ≥ 0.1 nM
EC50 (read off the curve) [4]: ~0.5 µg/mL
ADCC of iTregs by IL-2 activated NK cells: EC50 [5]: 0.21 uG/mL
Kd [6]: 5.8 nM
Kd [7]: 244 nM
EC50 (read off the curve) [8]: ~0.4 µg/mL
Kd [9]: 2.33 nM
EC50 (read off the curve) [10]: ~1 µg/mL
EC50 (read off the curve) [11]: ~0.5 µg/mL
Kd [12]: 2.5 nM

B3: aCD25-a-686-m2 (antibody, IgG1, V domains shown)
VH: QVQLVQSGAEVKKPGSSVKVSCKASGGTFSSLAITWVRQAPGQGLEWMGGIIPIFGDASYAQKFQGRVTITADESTSTAYMELSSLRSEDTAVYYCARGGSVSGTLVDFDIWGQGTMVTVSS
VL: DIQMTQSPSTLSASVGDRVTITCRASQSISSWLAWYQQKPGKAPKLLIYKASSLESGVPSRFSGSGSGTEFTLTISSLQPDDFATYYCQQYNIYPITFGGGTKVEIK
Kd [13]: 1.9 nM

B4: aCD25-a-686-m1 (antibody, IgG1, V domains shown)
VH: QVQLVQSGAEVKKPGSSVKVSCKASGGTFSSLAISWVRQAPGQGLEWMGAIIPVFGTASYAQKFQGRVTITADESTSTAYMELSSLRSEDTAVYYCARGGSVSGTLVDFDIWGQGTMVTVSS
VL: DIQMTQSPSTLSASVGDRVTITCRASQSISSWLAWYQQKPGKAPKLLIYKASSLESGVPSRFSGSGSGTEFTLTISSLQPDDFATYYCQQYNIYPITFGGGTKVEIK
notes: also called aCD25-a-686-ml; aCD25-a-686ml
Kd [14]: 0.97 nM
